B1: TRIM39 (parent)
chain: YPCVLATEGFTSGRHYWEVEVGDK

Variants of: B1
Experiment: protein stability index of a GFP-peptide fusion (GPS, HEK-293T) (PSI 1-6); higher = more stable
Settings: c terminus: a fixed tail appended
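Note: lentivirally expressed fusions sorted by FACS into six bins by GFP to DsRed ratio, PSI derived from sequencing read proportions per bin multiplied by bin number.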

Variant	protein stability index
YPCVLAIEGFTSGRHYWEVEVGDK [T7I]	1.63
YPCVLANEGFTSGRHYWEVEVGDK [T7N]	2.45
YPCVLAHEGFTSGRHYWEVEVGDK [T7H]	1.59
YPCSLATEGFTSGRHYWEVEVGDK [V4S]	1.61
YPCDLATEGFTSGRHYWEVEVGDK [V4D]	2.54
YPCFLATEGFTSGRHYWEVEVGDK [V4F]	2.18
YPCGLATEGFTSGRHYWEVEVGDK [V4G]	2.69
YPCMLATEGFTSGRHYWEVEVGDK [V4M]	2.06
YPCYLATEGFTSGRHYWEVEVGDK [V4Y]	2.41
YPCRLATEGFTSGRHYWEVEVGDK [V4R]	1.78
YPCTLATEGFTSGRHYWEVEVGDK [V4T]	1.68
YPCCLATEGFTSGRHYWEVEVGDK [V4C]	2.03
YPCLLATEGFTSGRHYWEVEVGDK [V4L]	2.13
YPCALATEGFTSGRHYWEVEVGDK [V4A]	1.73
YPCELATEGFTSGRHYWEVEVGDK [V4E]	2.88
YPCPLATEGFTSGRHYWEVEVGDK [V4P]	2.01
YPCHLATEGFTSGRHYWEVEVGDK [V4H]	1.52
YPCNLATEGFTSGRHYWEVEVGDK [V4N]	1.85
YPCILATEGFTSGRHYWEVEVGDK [V4I]	1.85
YPCQLATEGFTSGRHYWEVEVGDK [V4Q]	1.46
YPCKLATEGFTSGRHYWEVEVGDK [V4K]	1.79
YPCWLATEGFTSGRHYWEVEVGDK [V4W]	1.74
YPFVLATEGFTSGRHYWEVEVGDK [C3F]	1.86
YPIVLATEGFTSGRHYWEVEVGDK [C3I]	2.41

Variant	protein stability index
YPWVLATEGFTSGRHYWEVEVGDK [C3W]	1.97
YPMVLATEGFTSGRHYWEVEVGDK [C3M]	1.91
YPAVLATEGFTSGRHYWEVEVGDK [C3A]	2.05
YPRVLATEGFTSGRHYWEVEVGDK [C3R]	2.99
YPNVLATEGFTSGRHYWEVEVGDK [C3N]	1.7
YPQVLATEGFTSGRHYWEVEVGDK [C3Q]	1.9
YPEVLATEGFTSGRHYWEVEVGDK [C3E]	3.41
YPGVLATEGFTSGRHYWEVEVGDK [C3G]	1.98
YPDVLATEGFTSGRHYWEVEVGDK [C3D]	1.9
YPLVLATEGFTSGRHYWEVEVGDK [C3L]	2.09
YPYVLATEGFTSGRHYWEVEVGDK [C3Y]	1.98
YPTVLATEGFTSGRHYWEVEVGDK [C3T]	1.81
YPHVLATEGFTSGRHYWEVEVGDK [C3H]	1.98
YPSVLATEGFTSGRHYWEVEVGDK [C3S]	2
YPKVLATEGFTSGRHYWEVEVGDK [C3K]	1.48
YPVVLATEGFTSGRHYWEVEVGDK [C3V]	2.01
YPCVLATEQFTSGRHYWEVEVGDK [G9Q]	2.04
YPCVLATERFTSGRHYWEVEVGDK [G9R]	2.38
YPCVLATEPFTSGRHYWEVEVGDK [G9P]	2.21
YPCVLATEDFTSGRHYWEVEVGDK [G9D]	2.01
YPCVLATESFTSGRHYWEVEVGDK [G9S]	1.81
YPCVLATEKFTSGRHYWEVEVGDK [G9K]	1.8
YPCVLATEYFTSGRHYWEVEVGDK [G9Y]	2.22
YPCVLATETFTSGRHYWEVEVGDK [G9T]	2.03

Variant	protein stability index
YPCVLATEWFTSGRHYWEVEVGDK [G9W]	1.96
YPCVLATEFFTSGRHYWEVEVGDK [G9F]	2.97
YPCVLATEMFTSGRHYWEVEVGDK [G9M]	1.66
YPCVLATEHFTSGRHYWEVEVGDK [G9H]	1.6
YPCVLATENFTSGRHYWEVEVGDK [G9N]	1.99
YPCVLATEIFTSGRHYWEVEVGDK [G9I]	1.05
YPCVLATEVFTSGRHYWEVEVGDK [G9V]	1.81
YPCVLATEEFTSGRHYWEVEVGDK [G9E]	2.2
YPCVLATECFTSGRHYWEVEVGDK [G9C]	1.57
YPCVLATEAFTSGRHYWEVEVGDK [G9A]	2.49
YPCVLNTEGFTSGRHYWEVEVGDK [A6N]	2.47
YPCVLWTEGFTSGRHYWEVEVGDK [A6W]	2.16
YPCVLDTEGFTSGRHYWEVEVGDK [A6D]	2.12
YPCVLLTEGFTSGRHYWEVEVGDK [A6L]	1.45
YPCVLTTEGFTSGRHYWEVEVGDK [A6T]	3
YPCVLETEGFTSGRHYWEVEVGDK [A6E]	1.71
YPCVLFTEGFTSGRHYWEVEVGDK [A6F]	1.27
YPCVLPTEGFTSGRHYWEVEVGDK [A6P]	1.75
YPCVLRTEGFTSGRHYWEVEVGDK [A6R]	1.36
YPCVLCTEGFTSGRHYWEVEVGDK [A6C]	1.44
YPCVLMTEGFTSGRHYWEVEVGDK [A6M]	1.4
YPCVLKTEGFTSGRHYWEVEVGDK [A6K]	1.59
YPCVLHTEGFTSGRHYWEVEVGDK [A6H]	1.99
YPCVLVTEGFTSGRHYWEVEVGDK [A6V]	1.89

Variant	protein stability index
YPCVLQTEGFTSGRHYWEVEVGDK [A6Q]	2.47
YPCVLYTEGFTSGRHYWEVEVGDK [A6Y]	1.43
YPCVLITEGFTSGRHYWEVEVGDK [A6I]	2.09
YPCVLSTEGFTSGRHYWEVEVGDK [A6S]	1.44
YPCVLGTEGFTSGRHYWEVEVGDK [A6G]	2.38
YVCVLATEGFTSGRHYWEVEVGDK [P2V]	2.4
YTCVLATEGFTSGRHYWEVEVGDK [P2T]	2.21
YYCVLATEGFTSGRHYWEVEVGDK [P2Y]	1.66
YRCVLATEGFTSGRHYWEVEVGDK [P2R]	1.86
YFCVLATEGFTSGRHYWEVEVGDK [P2F]	1.78
YDCVLATEGFTSGRHYWEVEVGDK [P2D]	2.92
YKCVLATEGFTSGRHYWEVEVGDK [P2K]	1.99
YMCVLATEGFTSGRHYWEVEVGDK [P2M]	1.76
YGCVLATEGFTSGRHYWEVEVGDK [P2G]	2.58
YSCVLATEGFTSGRHYWEVEVGDK [P2S]	1.52
YQCVLATEGFTSGRHYWEVEVGDK [P2Q]	2.05
YACVLATEGFTSGRHYWEVEVGDK [P2A]	1.84
YCCVLATEGFTSGRHYWEVEVGDK [P2C]	1.94
YLCVLATEGFTSGRHYWEVEVGDK [P2L]	2.35
YNCVLATEGFTSGRHYWEVEVGDK [P2N]	2.21
YICVLATEGFTSGRHYWEVEVGDK [P2I]	1.1
YECVLATEGFTSGRHYWEVEVGDK [P2E]	2.67

Reference: the supplement of paper PMC10567573
